# Experimental data from patent US20230360747A1.
# Molecular target: SARS-CoV-2 RBD (40592-VO8H, Sino Biological), Alexa Fluor 647 labelled (SARS-CoV-2) (UniProt P0DTC2)
substance,measurement,value
"SARS-CoV-2 (2019-nCoV) spike antibody (40150-R007, Sino Biological)",Kd,9.6 nM
